According to patent US6642368B1, “Programmed cell death and caspase-12” (The General Hospital Corporation, priority 1998, dated 2003):

What was measured:
[1] = biological target: pro-IL-1β
[2] = biological target: T1, caspase-12Δ (Gly95-Asn419 of caspase-12L, with an artificial initiation codon), [35S]-labeled
T1 chain: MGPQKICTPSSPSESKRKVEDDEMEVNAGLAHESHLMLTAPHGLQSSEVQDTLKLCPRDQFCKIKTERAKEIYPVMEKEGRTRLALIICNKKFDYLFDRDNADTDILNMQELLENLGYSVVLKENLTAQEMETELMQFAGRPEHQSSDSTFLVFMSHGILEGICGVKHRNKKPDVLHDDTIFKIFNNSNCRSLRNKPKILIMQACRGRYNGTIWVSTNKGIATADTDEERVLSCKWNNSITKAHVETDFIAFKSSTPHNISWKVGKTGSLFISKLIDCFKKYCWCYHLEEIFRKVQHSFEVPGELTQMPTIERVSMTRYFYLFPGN

[3] = biological target: pro-ICE ([35S]-labeled)
[4] = biological target: T2, pro-caspase-12 (caspase-12L, full-length precursor, 419 residues, 48 kDa)
T2 chain: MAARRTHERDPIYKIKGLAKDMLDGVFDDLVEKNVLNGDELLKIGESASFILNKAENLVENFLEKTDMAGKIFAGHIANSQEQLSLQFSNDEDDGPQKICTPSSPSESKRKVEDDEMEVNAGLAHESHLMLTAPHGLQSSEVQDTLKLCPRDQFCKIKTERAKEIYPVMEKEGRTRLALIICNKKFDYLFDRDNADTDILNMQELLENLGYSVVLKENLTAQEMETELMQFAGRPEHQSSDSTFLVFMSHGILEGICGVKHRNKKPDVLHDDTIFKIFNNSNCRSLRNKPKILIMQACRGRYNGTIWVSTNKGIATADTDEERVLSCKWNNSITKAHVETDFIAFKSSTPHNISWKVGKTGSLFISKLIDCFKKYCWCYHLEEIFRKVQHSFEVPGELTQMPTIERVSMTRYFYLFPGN

[5] = biological target: T3, pro-caspase-2 ([35S]-labeled)
T3 sequence (P42575 2-452, species assumed, looked up): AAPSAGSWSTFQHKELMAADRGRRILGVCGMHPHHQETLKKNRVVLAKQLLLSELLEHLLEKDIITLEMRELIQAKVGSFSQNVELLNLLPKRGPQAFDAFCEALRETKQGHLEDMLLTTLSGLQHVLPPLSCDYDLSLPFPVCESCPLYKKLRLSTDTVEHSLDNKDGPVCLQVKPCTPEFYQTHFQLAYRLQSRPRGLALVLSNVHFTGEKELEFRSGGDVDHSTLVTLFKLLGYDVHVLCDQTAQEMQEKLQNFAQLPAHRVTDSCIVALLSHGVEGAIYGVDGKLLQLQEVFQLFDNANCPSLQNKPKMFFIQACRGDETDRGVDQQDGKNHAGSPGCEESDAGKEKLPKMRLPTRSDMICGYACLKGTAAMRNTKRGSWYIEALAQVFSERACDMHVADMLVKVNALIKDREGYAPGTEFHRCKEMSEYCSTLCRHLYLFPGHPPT

[6] = biological target: T4, pro-caspase-3 ([35S]-labeled)
T4 sequence (P42574 1-277, species assumed, looked up): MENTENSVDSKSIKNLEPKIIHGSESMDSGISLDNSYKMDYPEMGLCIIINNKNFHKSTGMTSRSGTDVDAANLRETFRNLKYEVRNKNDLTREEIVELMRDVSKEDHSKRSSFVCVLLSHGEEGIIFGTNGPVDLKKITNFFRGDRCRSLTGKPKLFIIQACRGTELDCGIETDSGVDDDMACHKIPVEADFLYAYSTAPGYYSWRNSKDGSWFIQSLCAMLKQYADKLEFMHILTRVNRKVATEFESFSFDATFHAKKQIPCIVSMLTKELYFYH

[7] = biological target: poly(ADP-ribose) polymerase
[8] = biological target: T5, caspase-12 (Mus musculus, UniProt O08736); test: Suppression of cell-killing activity of caspase-12 by baculovirus p35; assay type: cell-based; details: unpublished data
T5 sequence (O08736 1-419): T2 chain

[9] = system: NG108-15; test: Cell type specificity of cell killing, lacZ fusion transfection; assay type: cell-based; details: NG108-15, FIG. 6
Method: (§1) FIG. 6. The cell type specificity of caspase-12-induced cell killing activity. NG108-15, HeLa and COS-1 cells were transfected with casp-12L-lacZ, casp-12S-LacZ, lacZ or ICE-lacZ. Staining of transfectants were done and the data are presented as in FIG. 4C.
(§2) Rat-1, rat embryonic fibroblast cells, NG108-15, HeLa and COS-1 were maintained in culture at 37° C. with 5% CO2 in Dulbecco's modified Eagle's medium containing 10% (v/v) fetal bovine serum (BioWhittaker) and 50 units/ml penicillin and 50 μg/ml streptomycin (Sigma). The day before transfection, cells were seeded at a density of 1.3×10^4 cells/cm^2. Expression constructs were transferred to cells with either calcium phosphate or lipofectamine (GIBCO BRL) as previously described (Miura, M., et al., Cell 75:653-660 (1993); Kumar, S., et al., Genes and Development 8:1613-1626 (1994); Wang, L., et al., Cell 78:739-750 (1994)). The expression of chimeric genes in cells was detected by staining of cells with 5-bromo-4-chloro-3-indolyl β-D-galactoside (X-gal) as previously described (Miura, M., et al., Cell 75:653-660 (1993); Kumar, S., et al., Genes and Development 8:1613-1626 (1994); Wang, L., et al., Cell 78:739-750 (1994)). […]

[10] = system: HeLa; test: as above; assay type: cell-based; details: FIG. 6
Method: as §1, §2

[11] = system: Rat-1/bcl-2; test: Effect of cell death suppressor bcl-2 on caspase-12 killing activity; assay type: cell-based; details: casp-12L-lacZ in Rat-1/bcl-2 stable transfectant
Method: FIGS. 5A-5B. Effect of cell death suppressors on the killing activity of caspase-12. […] Cell death was assayed as described in FIG. 4C. […] The data from transfection of the parental cell line, Rat-1 (FIG. 4C), are included in the figures for comparison. The lacZ construct was also used for transfection as a control.
To determine if expression of bcl-2 and crmA can inhibit apoptosis induced by casp-12 overexpression, casp-12L-lacZ fusion construct was transfected into stable cell lines of Rat-1 that overexpresses either bcl-2 or crmA (Miura, M., et al., Cell 75:653-660 (1993)). Cell death was assayed as described above (Example 3). […] The magnitude of the bcl-2 suppression against toxicity of casp-12 overexpression was about 10% (60% for Rat-1, 50% for Rat-1/bcl-2) which is much smaller than that observed for ICE and casp-2 (FIG. 5A; Wang, L., et al., Cell 78:739-750 (1994)).

[12] = Protease activity of full-length recombinant caspase-12 from E. coli; assay type: biochemical; details: expressed and purified from E. coli
[13] = system: COS-1 cells; test: Cell type specificity of cell killing, lacZ fusion transfection; assay type: cell-based, monkey; details: COS-1, FIG. 6
Method: as §1, §2

[14] = system: rat embryonic fibroblast cells; test: Cell death induced by transient overexpression of lacZ fusion constructs, X-gal staining; assay type: cell-based; details: primary rat embryonic fibroblasts, FIG. 4C
From the text: (§3) FIGS. 4A-4C. Cell death induced by overexpression of caspase-12. […] The round cells expressing the casp-12L-lacZ fusion proteins show condensed and fragmented nuclei. […] The data shown are the percentage of round blue cells among total number of blue cells counted. In each transfection, over 200 blue cells were randomly chosen and counted. The data of Rat-1 cells collected from at least three independent experiments. The constructs used were: casp-12L-lacZ, casp-12S-lacZ, casp-12Δ-lacZ, ICE-lacZ, lacZ. Rat embryonic fibroblast cells (REF) were also transfected with either casp-12L-lacZ or lacZ.
as §2, with “Expression constructs were transferred to cells with either calcium phosphate or lipofectamine (GIBCO BRL) as previously described (Miura, M., et al., Cell 75:653-660 (1993); Kumar, S., et al., Genes and Development 8:1613-1626 (1994); Wang, L., et al., Cell 78:739-750 (1994)).” left out

[15] = system: Rat-1 cells; test: as above; assay type: cell-based; details: lacZ fusion construct, 24 hr after transfection
From the text: as §3
To examine if expression of caspase-12 induces apoptosis, a transient expression system was used to overexpress caspase-12 in mammalian cells. […] Transfected cells are easily detected by staining with X-gal because of the β-galactosidase activity of lacZ. Expression constructs of casp-12L and casp-12S fused with lacZ gene in pcDNA3 vector, which contains the cytomegalovirus (CMV) promoter, were generated. These expression constructs were introduced into Rat-1 cells by transfection, and the expression of the genes were examined 24 hr after transfection using X-gal reaction.
Rat-1, rat embryonic fibroblast cells, NG108-15, HeLa and COS-1 were maintained in culture at 37° C. with 5% CO2 in Dulbecco's modified Eagle's medium containing 10% (v/v) fetal bovine serum (BioWhittaker) and 50 units/ml penicillin and 50 μg/ml streptomycin (Sigma). The day before transfection, cells were seeded at a density of 1.3×10^4 cells/cm^2. Expression constructs were transferred to cells with either calcium phosphate or lipofectamine (GIBCO BRL) as previously described (Miura, M., et al., Cell 75:653-660 (1993); Kumar, S., et al., Genes and Development 8:1613-1626 (1994); Wang, L., et al., Cell 78:739-750 (1994)). The expression of chimeric genes in cells was detected by staining of cells with 5-bromo-4-chloro-3-indolyl β-D-galactoside (X-gal) as previously described (Miura, M., et al., Cell 75:653-660 (1993); Kumar, S., et al., Genes and Development 8:1613-1626 (1994); Wang, L., et al., Cell 78:739-750 (1994)). Immunostaining of transfected cells was done as previously described using mouse monoclonal anti-lacZ antibody (Miura, M., et al., Cell 75:653-660 (1993); Kumar, S., et al., Genes and Development 8:1613-1626 (1994); Wang, L., et al., Cell 78:739-750 (1994)).

Sequence of pro-IL-1β (P01584 whole entry): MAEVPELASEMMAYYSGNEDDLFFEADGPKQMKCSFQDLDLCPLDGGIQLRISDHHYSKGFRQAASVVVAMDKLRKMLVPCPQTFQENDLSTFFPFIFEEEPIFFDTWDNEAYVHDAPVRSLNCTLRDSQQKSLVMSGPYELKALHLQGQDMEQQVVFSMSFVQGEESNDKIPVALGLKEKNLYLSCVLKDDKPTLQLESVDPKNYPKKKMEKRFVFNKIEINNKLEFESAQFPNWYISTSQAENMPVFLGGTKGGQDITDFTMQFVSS
Sequence of pro-ICE ([35S]-labeled) (P29466 whole entry): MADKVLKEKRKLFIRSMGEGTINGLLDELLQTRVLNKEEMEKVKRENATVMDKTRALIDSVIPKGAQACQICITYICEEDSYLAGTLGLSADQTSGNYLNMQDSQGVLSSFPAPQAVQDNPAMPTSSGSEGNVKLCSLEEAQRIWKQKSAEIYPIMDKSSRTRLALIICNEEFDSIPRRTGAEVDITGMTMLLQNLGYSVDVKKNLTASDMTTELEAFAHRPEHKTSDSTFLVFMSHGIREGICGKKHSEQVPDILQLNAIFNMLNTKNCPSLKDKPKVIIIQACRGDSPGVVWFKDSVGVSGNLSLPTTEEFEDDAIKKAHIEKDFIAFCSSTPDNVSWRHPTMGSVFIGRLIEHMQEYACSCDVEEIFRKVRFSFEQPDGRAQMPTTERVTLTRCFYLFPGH

B1: His-tagged caspase-12Δ2 (residues 145-419 of caspase-12L), partially purified from E. coli, autoprocessed into p24 and p10 (protein)
chain 1: TLKLCPRDQFCKIKTERAKEIYPVMEKEGRTRLALIICNKKFDYLFDRDNADTDILNMQELLENLGYSVVLKENLTAQEMETELMQFAGRPEHQSSDSTFLVFMSHGILEGICGVKHRNKKPDVLHDDTIFKIFNNSNCRSLRNKPKILIMQACRGRYNGTIWVSTNKGIATAD
chain 2: TDEERVLSCKWNNSITKAHVETDFIAFKSSTPHNISWKVGKTGSLFISKLIDCFKKYCWCYHLEEIFRKVQHSFEVPGELTQMPTIERVSMTRYFYLFPGN
[1]
  in vitro cleavage by the purified protease: showed little activity for cleavage of pro-IL-1β and poly(ADP-ribose) polymerase
[2]
  in vitro cleavage of [35S]-labeled protein by the partially purified protease: the 38 kDa polypeptide was cleaved into 26 kDa and 13 kDa fragments
[3]
  in vitro cleavage of [35S]-labeled pro-enzyme by the partially purified protease: only faint bands of cleavage products were visible
[4]
  in vitro cleavage of [35S]-labeled pro-enzyme by the partially purified protease: can efficiently process pro-caspase-12 (48 kDa) into fragments
[5]
  in vitro cleavage of [35S]-labeled pro-enzyme by the partially purified protease: only faint bands of cleavage products were visible
[6]
  in vitro cleavage of [35S]-labeled pro-enzyme by the partially purified protease: only faint bands of cleavage products were visible
[7]
  in vitro cleavage by the purified protease: showed little activity for cleavage of pro-IL-1β and poly(ADP-ribose) polymerase

B2: baculovirus p35: virus inhibitor for the caspase family (protein, UniProt P08160 1-299, looked up)
Early 35 kDa protein: MCVIFPVEIDVSQTIIRDCQVDKQTRELVYINKIMNTQLTKPVLMMFNISGPIRSVTRKNNNLRDRIKSKVDEQFDQLERDYSDQMDGFHDSIKYFKDEHYSVSCQNGSVLKSKFAKILKSHDYTDKKSIEAYEKYCLPKLVDERNDYYVAVCVLKPGFENGSNQVLSFEYNPIGNKVIVPFAHEINDTGLYEYDVVAYVDSVQFDGEQFEEFVQSLILPSSFKNSEKVLYYNEASKNKSMIYKALEFTTESSWGKSEKYNWKIFCNGFIYDKKSKVLYVKLHNVTSALNKNVILNTIK
[8]
  suppression of cell-killing activity of caspase-12: could not efficiently suppress

B3: caspase-12L: long form of mouse caspase-12, 419 amino acid residues (SEQ ID NO:2); expressed as lacZ fusion (protein)
chain: T2 chain
modifications: lacZ fusion
[9]
  apoptosis induced by casp-12L expression: resistant to apoptosis
[10]
  apoptosis induced by casp-12L expression: resistant to apoptosis
[11]
  percentage of cell death: 50%
[12]
  processing and protease activity in vitro: without any processing and protease activity
[13]
  apoptosis induced by casp-12L expression: resistant to apoptosis
[14]
  transfected cells round and small: about 60%
[15]
  percentage of cell death (round blue cells among total blue cells): about 60%
[15]; listed as casp-12L-lacZ
  percentage of cell death (round blue cells among total blue cells): 60%
